US20220412989A1, “COMPOSITIONS AND METHODS FOR DETECTING CELLS UNDERGOING FERROPTOSIS USING AN ANTIBODY” (THE TRUSTEES OF COLUMBIA UNIVERSITY IN THE CITY OF NEW YORK, priority 2020, published 2022)
“Also recorded” adds a separate entry of the source.

Experiments:
[1] = molecular target: T1, transferrin receptor protein 1 (Homo sapiens, UniProt P02786); assay: Antigen identification by immunoprecipitation-mass spectrometry; type: binding; conditions: HT-1080 cell lysate
T1 construct: First, we incubated 3F3-FMA with a cell lysate overnight; endogenous in cells; host or cells: HT-1080 (ATCC CRL-7951)
T1 sequence (P02786 whole entry): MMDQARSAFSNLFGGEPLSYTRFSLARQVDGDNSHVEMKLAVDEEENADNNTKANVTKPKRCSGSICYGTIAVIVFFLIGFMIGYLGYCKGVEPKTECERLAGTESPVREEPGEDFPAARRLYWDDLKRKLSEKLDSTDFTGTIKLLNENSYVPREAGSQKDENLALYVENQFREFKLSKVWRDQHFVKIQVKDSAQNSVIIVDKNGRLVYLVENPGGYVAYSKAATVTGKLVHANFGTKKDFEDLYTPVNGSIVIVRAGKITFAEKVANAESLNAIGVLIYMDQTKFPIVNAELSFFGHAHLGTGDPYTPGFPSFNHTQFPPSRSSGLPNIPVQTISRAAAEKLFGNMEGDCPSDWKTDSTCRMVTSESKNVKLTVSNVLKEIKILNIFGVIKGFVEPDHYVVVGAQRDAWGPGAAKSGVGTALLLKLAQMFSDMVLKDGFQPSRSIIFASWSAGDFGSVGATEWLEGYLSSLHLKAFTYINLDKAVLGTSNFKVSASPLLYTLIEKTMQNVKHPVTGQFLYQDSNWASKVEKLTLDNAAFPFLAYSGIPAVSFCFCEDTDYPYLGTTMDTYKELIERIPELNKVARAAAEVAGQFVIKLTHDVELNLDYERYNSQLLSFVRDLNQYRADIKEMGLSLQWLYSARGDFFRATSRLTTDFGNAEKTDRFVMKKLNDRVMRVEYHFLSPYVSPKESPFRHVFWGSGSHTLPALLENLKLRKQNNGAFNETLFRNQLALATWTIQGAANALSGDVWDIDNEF
Method: HT-1080 cells were seeded in DMEM (Corning 10-013-CM) and 10% Hi-FBS with 1% penicillin and streptomycin (PS) with 1% MEM Non-Essential Amino Acids Solution (100×) (Thermo Fisher Scientific 11140-076) 16 h prior to use. DMSO or 1 μM of RSL3 was added and incubated for 4 h. Following treatment, the medium was aspirated from each dish and cells were washed twice with PBS. Cells were lysed with 70 μl lysis buffer (RIPA buffer from ThermoFisher, cat. 89900, 1 mM EDTA, 1 mM PMSF, 1× Halt™ protease inhibitor cocktail from ThermoFisher, cat. 78430 and 1× Halt™ phosphatase inhibitor cocktail from ThermoFisher, cat. 78426). Unlysed cells and debris were pelleted for 15 min at 16,000×g at 4° C. The samples were incubated with 10 μg of 3F3 FMA overnight at 4° C. with shaking. […]
Trypsin digestion was performed overnight at 37° C. […] CID fragmentation was applied with 35% collision energy and resulting fragments were detected using the rapid scan rate in the ion trap. […]
Raw mass spectrometric data were analyzed using MaxQuant v.1.6.1.0 (Cox and Mann, 2008) (MaxQuant, RRID:SCR_014485) and employed Andromeda for database search (Cox et al., 2011) at default settings with a few modifications. […]

[2] = test system: HCC (Huh-7) mouse xenograft tumor tissue; assay: Staining of hepatocellular carcinoma mouse xenograft tumor tissue sections; parameters: species or system human; conditions: 50 mg/kg IKE once daily IP 2 days
Method: Tumor tissues were fixed in 4% paraformaldehyde (PFA) for 24 h at 4° C. followed by washing with PBS three times. The tissues were perfused in 30% sucrose for 24 h at 4° C. for cryo-protection. The samples were embedded in OCT cryostat sectioning medium, and then moved directly into a cryostat. After equilibration of temperature, frozen tumor tissues were cut into 5 μm thick sections. Tissue sections were mounted on to poly-L-lysine coated slides by placing the cold sections onto warm slides. Slides were stored at −80° C. until staining. For staining, slides were warmed to room temperature followed by washing with PBS twice. A hydrophobic barrier pen was used to draw a circle on each slide. The slides were permeabilized with PBS with 0.4% Triton X-100 (PBT) twice before non-specific-binding blocking by incubating the sections with 10% goat serum (ThermoFisher 50197Z) for 30 min at room temperature. […] All images were captured on a Zeiss LSM 800 confocal microscope at Plan-Apochromat 63x/1.40 Oil DIC objective with constant laser intensity for all analyzed samples. The intensity above threshold of the fluorescent signal of the bound antibodies was analyzed using NIH ImageJ software (ImageJ, RRID:SCR_003070). Data were expressed as fold change comparing with the vehicle. […]

B1: 3F3-FMA: murine monoclonal IgG1 raised against ferroptotic membrane fractions; antigen is human transferrin receptor protein 1 (TfR1) (antibody, V domains shown)
VH: EVLLQQSGTELVRPGALVKLSCKASGFNIQDLYIHWVKQRPEQGLEWIGWIDPETDNTIYDPKFQGKASITADTSSNTAYLQLSSLTSEDTAMYYCSTGLLQWYFDVWGAGTAVTVSS
VL: DIVMTQSPSSLAMSIGQKVTMRCKSSQSLLNSYNQKNCLAWYQQKPGQSPKLLLYFVSTRESGVPDRFIGSGSGTDFTLTISSVQAEDLADYFCQQHYSTPLTFGAGTKLELK
amino acid coverage of TfR1 [1]: 53% | confidence identification of transferrin receptor protein 1 as target antigen [1]: 63% | staining intensity, IKE-treated vs vehicle samples [2]: increased intensities; also recorded: difference in intensities
